From IntAct's records for PubMed 26912900

B1: 26S proteasome regulatory subunit RPN1 (Saccharomyces cerevisiae), P38764 (parent)
chain: MVDESDKKQQTIDEQSQISPEKQTPNKKDKKKEEEEQLSEEDAKLKTDLELLVERLKEDDSSLYEASLNALKESIKNSTSSMTAVPKPLKFLRPTYPDLCSIYDKWTDPNLKSSLADVLSILAMTYSENGKHDSLRYRLLSDVSDFEGWGHEYIRHLALEIGEVYNDQVEKDAEDETSSDGSKSDGSAATSGFEFSKEDTLRLCLDIVPYFLKHNGEEDAVDLLLEIESIDKLPQFVDENTFQRVCQYMVACVPLLPPPEDVAFLKTAYSIYLSQNELTDAIALAVRLGEEDMIRSVFDATSDPVMHKQLAYILAAQKTSFEYEGVQDIIGNGKLSEHFLYLAKELNLTGPKVPEDIYKSHLDNSKSVFSSAGLDSAQQNLASSFVNGFLNLGYCNDKLIVDNDNWVYKTKGDGMTSAVASIGSIYQWNLDGLQQLDKYLYVDEPEVKAGALLGIGISASGVHDGEVEPALLLLQDYVTNPDTKISSAAILGLGIAFAGSKNDEVLGLLLPIAASTDLPIETAAMASLALAHVFVGTCNGDITTSIMDNFLERTAIELKTDWVRFLALALGILYMGQGEQVDDVLETISAIEHPMTSAIEVLVGSCAYTGTGDVLLIQDLLHRLTPKNVKGEEDADEEETAEGQTNSISDFLGEQVNEPTKNEEAEIEVDEMEVDAEGEEVEVKAEITEKKNGESLEGEEIKSEEKKGKSSDKDATTDGKNDDEEEEKEAGIVDELAYAVLGIALIALGEDIGKEMSLRHFGHLMHYGNEHIRRMVPLAMGIVSVSDPQMKVFDTLTRFSHDADLEVSMNSIFAMGLCGAGTNNARLAQLLRQLASYYSREQDALFITRLAQGLLHLGKGTMTMDVFNDAHVLNKVTLASILTTAVGLVSPSFMLKHHQLFYMLNAGIRPKFILALNDEGEPIKVNVRVGQAVETVGQAGRPKKITGWITQSTPVLLNHGERAELETDEYISYTSHIEGVVILKKNPDYREEE
partner: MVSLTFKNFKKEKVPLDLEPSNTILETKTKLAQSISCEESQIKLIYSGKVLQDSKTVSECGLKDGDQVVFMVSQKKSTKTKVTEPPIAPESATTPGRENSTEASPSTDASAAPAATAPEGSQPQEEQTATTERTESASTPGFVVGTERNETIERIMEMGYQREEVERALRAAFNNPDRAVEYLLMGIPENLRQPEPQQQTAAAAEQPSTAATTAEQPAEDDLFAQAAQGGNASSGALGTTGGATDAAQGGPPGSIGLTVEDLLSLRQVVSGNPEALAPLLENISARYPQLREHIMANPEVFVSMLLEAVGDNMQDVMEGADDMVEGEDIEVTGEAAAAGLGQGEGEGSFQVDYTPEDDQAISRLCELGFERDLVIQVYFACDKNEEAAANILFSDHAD

Variants of: B1
Conditions: with rad23_yeast RAD23, P32628
In the case of D541A;D548R;E552R, the “effect of a mutation on the interaction” value is reported as “disrupting interaction strength”.
